# Results from patent US20200385482A1.
# Experiments:
# [1] = target: human C-type lectin domain family 2 member (hCLEC2D) expressed on transfected 300.19 cells (human) (UniProt Q9UHP7); experiment: FACS, hCLEC2D 300.19 cells, assay 2, Ab approx 10 ug/ml
# [2] = target: human C-type lectin domain family 2 member (hCLEC2D) expressed on transfected 300.19 cells (human) (UniProt Q9UHP7); experiment: FACS, hCLEC2D 300.19 cells, assay 2, Ab 0.01 ug/ml
# [3] = target: human C-type lectin domain family 2 member (hCLEC2D) expressed on transfected 300.19 cells (human) (UniProt Q9UHP7); experiment: FACS, hCLEC2D 300.19 cells, assay 1, Ab approx 10 ug/ml
# [4] = target: human C-type lectin domain family 2 member (hCLEC2D) expressed on transfected 300.19 cells (human) (UniProt Q9UHP7); experiment: FACS, hCLEC2D 300.19 cells, assay 2, Ab 0.1 ug/ml
# [5] = target: human C-type lectin domain family 2 member (hCLEC2D) expressed on transfected 300.19 cells (human) (UniProt Q9UHP7); experiment: FACS, hCLEC2D 300.19 cells, assay 2, Ab 1 ug/ml
# [6] = target: human C-type lectin domain family 2 member (hCLEC2D) expressed on transfected 300.19 cells (human) (UniProt Q9UHP7); experiment: FACS, hCLEC2D 300.19 cells, assay 1, Ab 0.1 ug/ml
# [7] = target: human C-type lectin domain family 2 member (hCLEC2D) expressed on transfected 300.19 cells (human) (UniProt Q9UHP7); experiment: FACS, hCLEC2D 300.19 cells, assay 1, Ab 1 ug/ml
# [8] = target: human C-type lectin domain family 2 member (hCLEC2D) expressed on transfected 300.19 cells (human) (UniProt Q9UHP7); experiment: FACS, hCLEC2D 300.19 cells, assay 1, Ab 0.01 ug/ml
# human C-type lectin domain family 2 member (hCLEC2D) expressed on transfected 300.19 cells (human), sequence (Q9UHP7 whole entry, the tested form may be a part): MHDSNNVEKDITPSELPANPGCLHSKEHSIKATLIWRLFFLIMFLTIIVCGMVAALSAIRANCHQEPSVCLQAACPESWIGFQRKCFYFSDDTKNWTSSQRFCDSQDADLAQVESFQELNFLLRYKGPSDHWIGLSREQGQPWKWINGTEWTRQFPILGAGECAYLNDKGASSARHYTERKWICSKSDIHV
substance,measurement,setting,value
control hIgG (antibody),Cells PE-A Mean,[1],1540 MFI
same,Cells PE-A Mean,[2],146 MFI
same,Cells PE-A Mean,[3],1540 MFI
same,Cells PE-A Mean,[4],175 MFI
same,Cells PE-A Mean,[5],351 MFI
same,Cells PE-A Mean,[6],175 MFI
same,Cells PE-A Mean,[7],351 MFI
same,Cells PE-A Mean,[8],146 MFI
